Measurements as given in patent US8343500 (APITOPE TECHNOLOGY BRISTOL, dated 2013).

Legend:
HLA-DQ6 = HLA-DQ6 (human, UniProt P01909 24-254; P01920 33-261); experiment: cell-based or functional assay
HLA-DR2b = molecular target: T1, HLA-DR2b (human); experiment: conclusion of Example 6; tolerance induction in HLA:DR2 (DRB1*1501) transgenic mice, no direct binding assay
T1 construct: whole, on cells; also called DR2b [DRB1*1501]; HLA:DR2 (DRB1*1501)

B1: MBP 130-144 (peptide)
peptide: RASDYKSAHKGFKGV
B1 was tested, and the “proliferation of T-cell clone MS17:A2 ([3H]-thymidine, stimulation index), against Mgar control cells” value (HLA-DQ6) was 3.24 fold.

B2: MBP 30-44 (peptide)
peptide: PRHRDTGILDSIGRF
B2 was tested, and the proliferation of T-cell clone MS 49:D3 ([3H]-thymidine, stimulation index), against Mgar control cells (HLA-DQ6) was 1.5 fold.

B3: MBP 140-154 (peptide)
peptide: GFKGVDAQGTLSKIF
notes: also called ATX-MS-06; APITOPE MS6
B3: binds (HLA-DR2b).
